Results as given in patent US20240084004A1 (INTERVET, published 2024).
Numbering of substitutions follows the chain as printed.

B1: mAb 1B5 (mouse anti-canine PD-1 monoclonal antibody) (antibody, V domains shown)
VH: QIQLVQSGPELKKPGETVKISCKASGYTFTTYGMSWVKQAPGKGLKWMGWINIYSGIPTYADDFKGRFAFSLETSASTAYLQIDNLKNEDTATYFCARFDGPDYWGQGTTLTVSP
VL: DIVMTQSPSSLAMSVGQKVTMSCKSSQSLLNSVNQKNYLAWYQQKPGQSPKVLVYFASTRVSGVPDRFIGSGSGTDFTLTITSVQAEDLTTYLCQQYFSTPLTFGAGTKLEIK
notes: Mouse mAb; also called IBS
B2: Murine 3B6 (mouse anti-canine PD-1 monoclonal antibody) (antibody, V domains shown)
VH: B1 VH with P115S
VL: B1 VL with M13V, Q17R, T59A, T80A, T82S, L93F, I112L
notes: Mouse hybridoma mAb; also called mAb 3B6
B3: 4D12 (antibody, V domains shown)
VH: B1 VH with I57M, A76V, D84N, P115S
VL: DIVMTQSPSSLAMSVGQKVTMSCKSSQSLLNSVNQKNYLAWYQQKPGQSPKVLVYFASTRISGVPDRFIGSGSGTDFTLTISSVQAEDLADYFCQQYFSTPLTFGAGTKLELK
notes: Mouse anti-canine PD-1 mAb; also called mAb 4D12; copies: 2 + 2
B4: mAb 2G9 (mouse anti-canine PD-1 monoclonal antibody) (antibody, V domains shown)
VH: QAYLQQSGAELVRPGASVKISCKASGYTFTRYNMHWVKQTPRQGLEWIGTIYPGYGDTSYNQKFKGKATLTVDISSSTAYMQLTSLTSEDSAVYFCSREFADDYPIPPFDYWGQGTTLTVSS
VL: DVLMTQTPLSLPVSLGDQASISCRSSQNIVHSNGNTYLEWYLQKPGQSPKLLIYKVSNRFSGVPDRFSGSGSGTDFTLKISRVEAEDLGIYYCFQGSHVPYTFGGGTKLEIK
notes: Mouse hybridoma mAb
B5: 5G5 (antibody, V domains shown)
VH: EVQLQQSVAELVRPGASVKLSCTVSGFNIKNTYMHWVKQRPEQGLEWIGRIDPANVNTKYAPKFQGKATITTDTSSNTAYMQLSSLTSEDTAIYYCVLIFYDYDGDIDVWGTGTKVTVSS
VL: DIQMNQSPSSLSASLGDTITITCHASQNINVWLSWYQQKPGNIPKLLIYKASNLHTGVPSRFSGSGSGTDFTLTISSLQPEDIATYYCQQGQSYPLTFGAGTKLELK
notes: Mouse anti-canine PD-1 mAb; also called mAb 5G5; copies: 2 + 2
B6: Murine 2H9 (mouse anti-canine PD-1 monoclonal antibody) (antibody, V domains shown)
VH: B5 VH with V24A, V37I, D52A, N57D, T72A, S85T, F100Y, K115T
VL: B5 VL with K39R, N53H, D70G, Y94W
notes: Mouse hybridoma mAb purified on Protein G; also called mAb 2H9

Columns and labels:
[1] = target: T1, canine PD-1 expressed on CHO cells (canine); assay: CELISA on CHO cells expressing canine PD-1, mAb diluted from 30 ug/mL (x axis: log of dilution), HRP goat anti-mouse, TMB
T1 construct: CHO DXB11 cells transfected with plasmid p96793; also called cPD-1 CHO cells; CHO cell line expressing canine PD-1
T1 chain: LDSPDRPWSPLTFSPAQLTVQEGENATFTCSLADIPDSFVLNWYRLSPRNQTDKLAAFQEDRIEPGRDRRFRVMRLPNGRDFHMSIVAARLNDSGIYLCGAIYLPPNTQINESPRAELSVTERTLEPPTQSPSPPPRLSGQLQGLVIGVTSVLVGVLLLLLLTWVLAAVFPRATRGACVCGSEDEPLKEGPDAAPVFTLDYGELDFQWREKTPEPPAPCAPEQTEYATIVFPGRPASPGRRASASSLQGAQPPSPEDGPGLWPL

[2] = target: T2, HIS-tagged extracellular domain of canine PD-1; assay: ELISA on plate-coated HIS-tagged canine PD-1 ECD, two-fold dilutions of mAb, HRP goat anti-mouse IgG, TMB
T2 construct: also called canine PD-1 ECD-8HIS; PD-1ECD-HIS
T2 chain: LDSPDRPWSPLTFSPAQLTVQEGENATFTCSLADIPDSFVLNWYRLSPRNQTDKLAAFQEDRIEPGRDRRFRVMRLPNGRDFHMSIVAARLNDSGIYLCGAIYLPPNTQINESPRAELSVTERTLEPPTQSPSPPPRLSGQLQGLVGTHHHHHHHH
Method: Purified anti-canine PD-1 mAbs were tested for reactivity with the HIS-tagged ECD domain of canine PD-1 by ELISA as follows: HIS-tagged canine PD-1 ECD protein is diluted to 10 μg/mL in coating buffer (Carbonate/Bicarbonate pH 9.0) and dispensed at 100 μl/well in 96-well flat bottomed ELISA plates (NUNC). The plates are incubated at 4° C. overnight. The plates are then washed three times with phosphate buffered saline containing 0.05% Tween-20 (PBST). Next, 200 μl of blocking buffer (5% skim milk in PBST) is added to each well and the plates are incubated at 37° C. for 60 minutes. The plates are then washed three times with PBST. Next, 100 μl of test mAbs diluted in blocking buffer is added to the first wells of the appropriate columns. Test mAbs are then diluted two-fold to the appropriate plate position. Following incubation of the plates at 37° C. for 60 minutes, the plates are washed three times with PBST. Next, 100 μl per well of a 1:2,000 dilution of a horseradish peroxidase conjugated goat anti-mouse IgG (KPL) is added to the plates, which are then incubated at 37° C. for 60 minutes. Then the plates are washed three times with PBST, and 100 μl/well of 3,3′,5,5′ tetramethyl benzidine, (TMB) substrate (from KPL) is added to the plates. The color reaction is allowed to develop for 5-20 minutes at 37° C. prior to measuring absorbance at 650 nm.

[3] = target: T1, canine PD-1 expressed on CHO cells; assay: ligand blockade CELISA: mAb diluted from 30 ug/mL on CHO cells expressing canine PD-1, then cPD-L1-Fc-biotin, streptavidin-HRP; the signal is bound PD-L1
Method: (§1) A cell-based ELISA (CELISA) assay based on the CHO cell line expressing canine PD-1 was used for mouse mAbs which react with canine PD-1 (cPD-1). Ligand blockade was confirmed using this assay in conjunction with biotinylated cPD-L1/Fc protein. Briefly, seed cPD-1 CHO cells were placed in 96-well plates at 4×10⁴ cells per well and the cells were incubated at 37° C. for 18-24 hours till they are 95-100% confluent. The cell culture media was aspirated off, and the plates were washed 3× with PBS+0.05% Tween20 and 1×CHO media. Three-fold serial dilutions were made of anti-cPD1 mAbs in CHO media, starting at 30 μg/mL, and 50 μL/well of each antibody dilution were added down the plate. The incubation was performed at 37° C., 5% CO₂ with shaking for 30 min. 50 μL/well of cPD-L1-Fc-biotin (2 μg/ml in CHO media stock) was added and the incubation at 37° C., 5% CO₂ was continued with shaking for 45 min. The plates were washed 6 times with PBS+0.05% Tween 20. 100 ul/well of Streptavidin-HRP (1:2000) in CHO media was added followed by a incubation for 30-60 min at 37° C./5% CO₂. The plates were washed 5 times with PBS+0.05% Tween20 and then 100 μl/well of TMB color developing substrate was added. The color development was stopped by adding 50 μl/well of 1M phosphoric acid. The optical density (O.D.) at A450-A620 was measured using an ELISA plate reader.

[4] = target: T1, canine PD-1 expressed on CHO cells; assay: ligand blockade CELISA: mAb diluted from 54.8 µg/mL on CHO cells expressing canine PD-1, then cPD-L1-Fc-biotin, streptavidin-HRP; the signal is bound PD-L1
Method: as §1

[5] = target: T3, canine PD-1 antigen peptide GRDRRFRVM*RLPNGR (SEQ ID NO: 84) (canine); assay: ProImmune ProArray Ultra peptide microarray, fluorescent secondary antibody
T3 construct: The starred methionine has also been reported as a threonine
T3 peptide: GRDRRFRVMRLPNGR
Method: This library of overlapping peptides was designed to cover the full length canine PD-1 protein. The determination of peptide-antibody binding was performed by attachment of antibody samples to the ProArray Ultra® peptide microarray, followed by incubation with a fluorescent-labelled secondary antibody. All peptides are synthesized separately, and then bound to the ProArray Ultra® slide surface alongside ProImmune® murine IgG controls. This optimized process ensures that peptides are presented on the array in such a manner as to closely mimic the properties of the corresponding protein region, circumventing the inherent physiochemical variation of the free peptides themselves and making a compatible, combined peptide and protein array platform. […] After several washing steps, the ProArray Ultra® arrays were dried and scanned using a high-resolution fluorescence microarray scanning system. After scanning the fluorescent labelled ProArray Ultra® slides, the scanner recorded an image which was evaluated using image analysis software—enabling interpretation and quantification of the levels of fluorescent intensities associated with each fluorescent spot on the scanned microarray slide. The results of this experiment indicated some of the canine PD-1 peptides were recognized by some of the mAbs evaluated.

[6] = target: T1, canine PD-1 expressed on CHO cells; assay: ligand blockade CELISA: mAb diluted from 23.2 µg/mL on CHO cells expressing canine PD-1, then cPD-L1-Fc-biotin, streptavidin-HRP; the signal is bound PD-L1
Method: as §1

Binder	binding result [1]	binding result [2]	other results
B1	binds	–	–
B2	binds	binds	–
B3	–	binds	binding result [3]: binds
B4	–	binds	binding result [4]: binds
B5	–	binds	–
B6	–	binds	binding result [5]: binds; binding result [6]: binds
